Results on 17 variants are retold here after the supplement of paper PMC12855868.

Sequences and labels used below:
B1: library; numbered along this chain (parent)
chain: MAAAGGARLLRAASAVLGGPAGRWLHHAGSRAGSSGLLRNRGPGGSAEASRSLSVSARARSSSEDKITVHFINRDGETLTTKGKVGDSLLDVVVENNLDIDGFGACEGTLACSTCHLIFEDHIYEKLDAITDEENDMLDLAYGLTDRSRLGCQICLTKSMDNMTVRVPETVADARQSIDVGKTS

In the data set the parent is B1. Briefly: scaled log2 fold change in cell abundance, elesclomol vs control (0 = silent mean, 1 = nonsense mean) (scaled log2 ratio); higher = higher viability under elesclomol (loss of FDX1 cuproptosis function). The conditions noted are these: glucose 10 mM. As for the experimental part:
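Deep mutational scan of full-length human FDX1: a pooled saturation-mutagenesis ORF library (every residue 2-184 mutated to all 19 amino acids plus stop, and silent codons where available) was expressed by lentivirus in FDX1-knockout ABC1 (14 days) or HEK293T (11 days) cells grown with elesclomol (ES) or DMSO control. Variant abundance came from ORF sequencing. The log2 fold change (ES vs control, mean of duplicates) was centred on the silent-variant mean (0) and scaled to the nonsense-variant mean (1). Higher values mean greater viability under ES, i.e. loss of FDX1 function in cuproptosis.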

Where [1] appears, read: with ABC1 FDX1 KO, elesclomol 5 nM, 14 days.
[2] abbreviates: with HEK293T FDX1 KO, elesclomol 40 nM, 11 days.
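Further: variant abundance is its share of total variant reads in each endpoint sample, from next-generation sequencing of the integrated ORF PCR-amplified out of genomic DNA.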

Turning to MVAAGGARLLRAASAVLGGPAGRWLHHAGSRAGSSGLLRNRGPGGSAEASRSLSVSARARSSSEDKITVHFINRDGETLTTKGKVGDSLLDVVVENNLDIDGFGACEGTLACSTCHLIFEDHIYEKLDAITDEENDMLDLAYGLTDRSRLGCQICLTKSMDNMTVRVPETVADARQSIDVGKTS [A2V], the “scaled log2 fold change” value under setting [1] came to 0.0325 and the “scaled log2 fold change” value under setting [2] is 0.473.

Consider MSAAGGARLLRAASAVLGGPAGRWLHHAGSRAGSSGLLRNRGPGGSAEASRSLSVSARARSSSEDKITVHFINRDGETLTTKGKVGDSLLDVVVENNLDIDGFGACEGTLACSTCHLIFEDHIYEKLDAITDEENDMLDLAYGLTDRSRLGCQICLTKSMDNMTVRVPETVADARQSIDVGKTS [A2S], for which the “scaled log2 fold change” value is, setting by setting: under setting [1], -0.234; under setting [2], 0.215.

For the variant MFAAGGARLLRAASAVLGGPAGRWLHHAGSRAGSSGLLRNRGPGGSAEASRSLSVSARARSSSEDKITVHFINRDGETLTTKGKVGDSLLDVVVENNLDIDGFGACEGTLACSTCHLIFEDHIYEKLDAITDEENDMLDLAYGLTDRSRLGCQICLTKSMDNMTVRVPETVADARQSIDVGKTS [A2F], the “scaled log2 fold change” value under setting [1] was 0.0573 and the “scaled log2 fold change” value under setting [2] was -0.164.

In the case of MHAAGGARLLRAASAVLGGPAGRWLHHAGSRAGSSGLLRNRGPGGSAEASRSLSVSARARSSSEDKITVHFINRDGETLTTKGKVGDSLLDVVVENNLDIDGFGACEGTLACSTCHLIFEDHIYEKLDAITDEENDMLDLAYGLTDRSRLGCQICLTKSMDNMTVRVPETVADARQSIDVGKTS [A2H], the “scaled log2 fold change” value is 0.1 under setting [1] and 0.132 under setting [2].

Regarding MLAAGGARLLRAASAVLGGPAGRWLHHAGSRAGSSGLLRNRGPGGSAEASRSLSVSARARSSSEDKITVHFINRDGETLTTKGKVGDSLLDVVVENNLDIDGFGACEGTLACSTCHLIFEDHIYEKLDAITDEENDMLDLAYGLTDRSRLGCQICLTKSMDNMTVRVPETVADARQSIDVGKTS [A2L], the “scaled log2 fold change” value is, setting by setting: under setting [1], 0.0991; under setting [2], -0.056.

MPAAGGARLLRAASAVLGGPAGRWLHHAGSRAGSSGLLRNRGPGGSAEASRSLSVSARARSSSEDKITVHFINRDGETLTTKGKVGDSLLDVVVENNLDIDGFGACEGTLACSTCHLIFEDHIYEKLDAITDEENDMLDLAYGLTDRSRLGCQICLTKSMDNMTVRVPETVADARQSIDVGKTS [A2P]: the “scaled log2 fold change” value reads like this: under setting [1], -0.0191; under setting [2], 0.0189.

For MIAAGGARLLRAASAVLGGPAGRWLHHAGSRAGSSGLLRNRGPGGSAEASRSLSVSARARSSSEDKITVHFINRDGETLTTKGKVGDSLLDVVVENNLDIDGFGACEGTLACSTCHLIFEDHIYEKLDAITDEENDMLDLAYGLTDRSRLGCQICLTKSMDNMTVRVPETVADARQSIDVGKTS [A2I], the “scaled log2 fold change” value is -0.127 under setting [1] and -0.279 under setting [2].

Turning to MNAAGGARLLRAASAVLGGPAGRWLHHAGSRAGSSGLLRNRGPGGSAEASRSLSVSARARSSSEDKITVHFINRDGETLTTKGKVGDSLLDVVVENNLDIDGFGACEGTLACSTCHLIFEDHIYEKLDAITDEENDMLDLAYGLTDRSRLGCQICLTKSMDNMTVRVPETVADARQSIDVGKTS [A2N], the “scaled log2 fold change” value is, setting by setting: under setting [1], -0.0435; under setting [2], 0.135.

For the variant MRAAGGARLLRAASAVLGGPAGRWLHHAGSRAGSSGLLRNRGPGGSAEASRSLSVSARARSSSEDKITVHFINRDGETLTTKGKVGDSLLDVVVENNLDIDGFGACEGTLACSTCHLIFEDHIYEKLDAITDEENDMLDLAYGLTDRSRLGCQICLTKSMDNMTVRVPETVADARQSIDVGKTS [A2R], the “scaled log2 fold change” value was 0.187 under setting [1] and 0.489 under setting [2].

MCAAGGARLLRAASAVLGGPAGRWLHHAGSRAGSSGLLRNRGPGGSAEASRSLSVSARARSSSEDKITVHFINRDGETLTTKGKVGDSLLDVVVENNLDIDGFGACEGTLACSTCHLIFEDHIYEKLDAITDEENDMLDLAYGLTDRSRLGCQICLTKSMDNMTVRVPETVADARQSIDVGKTS [A2C]: the “scaled log2 fold change” value under setting [1] was determined as 0.441 and the “scaled log2 fold change” value under setting [2] is 0.0714.

Regarding MKAAGGARLLRAASAVLGGPAGRWLHHAGSRAGSSGLLRNRGPGGSAEASRSLSVSARARSSSEDKITVHFINRDGETLTTKGKVGDSLLDVVVENNLDIDGFGACEGTLACSTCHLIFEDHIYEKLDAITDEENDMLDLAYGLTDRSRLGCQICLTKSMDNMTVRVPETVADARQSIDVGKTS [A2K], the “scaled log2 fold change” value is 0.0757 under setting [1] and -0.0727 under setting [2].

With MDAAGGARLLRAASAVLGGPAGRWLHHAGSRAGSSGLLRNRGPGGSAEASRSLSVSARARSSSEDKITVHFINRDGETLTTKGKVGDSLLDVVVENNLDIDGFGACEGTLACSTCHLIFEDHIYEKLDAITDEENDMLDLAYGLTDRSRLGCQICLTKSMDNMTVRVPETVADARQSIDVGKTS [A2D], the “scaled log2 fold change” value stood at 0.173 under setting [1] and 0.487 under setting [2].

For MGAAGGARLLRAASAVLGGPAGRWLHHAGSRAGSSGLLRNRGPGGSAEASRSLSVSARARSSSEDKITVHFINRDGETLTTKGKVGDSLLDVVVENNLDIDGFGACEGTLACSTCHLIFEDHIYEKLDAITDEENDMLDLAYGLTDRSRLGCQICLTKSMDNMTVRVPETVADARQSIDVGKTS [A2G], the “scaled log2 fold change” value under setting [1] is 0.451.

For MTAAGGARLLRAASAVLGGPAGRWLHHAGSRAGSSGLLRNRGPGGSAEASRSLSVSARARSSSEDKITVHFINRDGETLTTKGKVGDSLLDVVVENNLDIDGFGACEGTLACSTCHLIFEDHIYEKLDAITDEENDMLDLAYGLTDRSRLGCQICLTKSMDNMTVRVPETVADARQSIDVGKTS [A2T], the “scaled log2 fold change” value was 0.0597 under setting [1] and -0.252 under setting [2].

MQAAGGARLLRAASAVLGGPAGRWLHHAGSRAGSSGLLRNRGPGGSAEASRSLSVSARARSSSEDKITVHFINRDGETLTTKGKVGDSLLDVVVENNLDIDGFGACEGTLACSTCHLIFEDHIYEKLDAITDEENDMLDLAYGLTDRSRLGCQICLTKSMDNMTVRVPETVADARQSIDVGKTS [A2Q]: the “scaled log2 fold change” value by setting is: under setting [1], -0.344; under setting [2], -0.344.

MMAAGGARLLRAASAVLGGPAGRWLHHAGSRAGSSGLLRNRGPGGSAEASRSLSVSARARSSSEDKITVHFINRDGETLTTKGKVGDSLLDVVVENNLDIDGFGACEGTLACSTCHLIFEDHIYEKLDAITDEENDMLDLAYGLTDRSRLGCQICLTKSMDNMTVRVPETVADARQSIDVGKTS [A2M]: the “scaled log2 fold change” value runs as follows: under setting [1], 0.0773; under setting [2], 0.0994.

MEAAGGARLLRAASAVLGGPAGRWLHHAGSRAGSSGLLRNRGPGGSAEASRSLSVSARARSSSEDKITVHFINRDGETLTTKGKVGDSLLDVVVENNLDIDGFGACEGTLACSTCHLIFEDHIYEKLDAITDEENDMLDLAYGLTDRSRLGCQICLTKSMDNMTVRVPETVADARQSIDVGKTS [A2E]: the “scaled log2 fold change” value is -0.26 under setting [1] and 0.752 under setting [2].
